In the Immune Epitope Database (IEDB):

What was measured:
[1] = biological target: HLA-B*53:01; assay: IEDB peptide-MHC binding, purified MHC/competitive/fluorescence; ≥ and ≤ were set here for values at or beyond the usual limits of such assays; conditions: source organism: Homo sapiens
[2] = biological target: HLA-B*14:02; assay: as above; conditions: source organism: Homo sapiens
[3] = biological target: HLA-A*24:02; assay: as above; conditions: source organism: Homo sapiens
[4] = biological target: HLA-B*18:01; assay: as above; conditions: source organism: Homo sapiens
[5] = biological target: HLA-B*51:01; assay: as above; conditions: source organism: Homo sapiens
[6] = biological target: HLA-A*11:01; assay: as above; conditions: source organism: Homo sapiens
[7] = biological target: HLA-B*40:02; assay: as above; conditions: source organism: Homo sapiens
[8] = biological target: HLA-B*58:01; assay: as above; conditions: source organism: Homo sapiens
[9] = biological target: HLA-A*31:01; assay: as above; conditions: source organism: Homo sapiens
[10] = biological target: HLA-B*07:02; assay: as above; conditions: source organism: Homo sapiens
[11] = biological target: HLA-B*44:03; assay: as above; conditions: source organism: Homo sapiens
[12] = biological target: HLA-B*35:01; assay: as above; conditions: source organism: Homo sapiens
[13] = biological target: HLA-A*68:02; assay: as above; conditions: source organism: Homo sapiens
[14] = biological target: HLA-A*02:01; assay: as above; conditions: source organism: Homo sapiens
[15] = biological target: HLA-A*03:01; assay: as above; conditions: source organism: Homo sapiens
[16] = biological target: HLA-A*29:02; assay: as above; conditions: source organism: Homo sapiens
[17] = biological target: HLA-B*08:01; assay: as above; conditions: source organism: Homo sapiens
[18] = biological target: HLA-B*37:01; assay: as above; conditions: source organism: Homo sapiens
[19] = biological target: HLA-A*01:01; assay: as above; conditions: source organism: Homo sapiens
[20] = biological target: HLA-A*25:01; assay: as above; conditions: source organism: Homo sapiens
[21] = biological target: HLA-B*08:02; assay: IEDB peptide-MHC binding, purified MHC/direct/fluorescence; filed as Kd, often an IC50 or EC50 that approximates it; ≥ and ≤ were set here for values at or beyond the usual limits of such assays; conditions: source organism: Francisella tularensis subsp. tularensis FSC033
[22] = biological target: HLA-A*26:01; assay: as above; conditions: source organism: Francisella tularensis subsp. tularensis FSC033
[23] = biological target: HLA-A*11:01; assay: as above
[24] = biological target: HLA-B*08:03; assay: as above; conditions: source organism: Francisella tularensis subsp. tularensis FSC033
[25] = biological target: HLA-B*58:01; assay: as above
[26] = biological target: HLA-A*31:01; assay: as above
[27] = biological target: HLA-B*44:02; assay: as above; conditions: source organism: Francisella tularensis subsp. holarctica LVS
[28] = biological target: HLA-B*07:02; assay: as above
[29] = biological target: HLA-B*27:05; assay: as above
[30] = biological target: HLA-A*02:01; assay: as above
[31] = biological target: HLA-A*26:03; assay: as above; conditions: source organism: Francisella tularensis subsp. tularensis FSC033
[32] = biological target: HLA-A*01:01; assay: as above
[33] = biological target: HLA-B*40:01; assay: as above
[34] = biological target: HLA-B*57:01; assay: as above
[35] = biological target: HLA-A*69:01; assay: as above
[36] = biological target: HLA-B*39:01; assay: IEDB peptide-MHC binding, purified MHC/competitive/fluorescence; filed as Kd, often an IC50 or EC50 that approximates it; ≥ and ≤ were set here for values at or beyond the usual limits of such assays; conditions: source organism: Francisella tularensis subsp. tularensis FSC198
[37] = biological target: HLA-B*15:17; assay: as above; conditions: source organism: Francisella tularensis subsp. tularensis FSC198
[38] = biological target: HLA-B*15:09; assay: as above
[39] = biological target: HLA-B*48:01; assay: as above
[40] = biological target: HLA-B*46:01; assay: IEDB peptide-MHC binding, purified MHC/direct/fluorescence; filed as Kd, often an IC50 or EC50 that approximates it; ≥ and ≤ were set here for values at or beyond the usual limits of such assays; conditions: source organism: Giardia lamblia ATCC 50803
[41] = biological target: HLA-B*18:01; assay: as above; conditions: source organism: Giardia lamblia ATCC 50803
[42] = biological target: HLA-B*51:01; assay: as above; conditions: source organism: Giardia lamblia ATCC 50803
[43] = biological target: HLA-B*15:17; assay: as above; conditions: source organism: Giardia lamblia ATCC 50803
[44] = biological target: HLA-A*03:01; assay: as above; conditions: source organism: Giardia lamblia ATCC 50803
[45] = biological target: HLA-C*03:03; assay: as above; conditions: source organism: Giardia lamblia ATCC 50803
[46] = biological target: HLA-B*48:01; assay: as above; conditions: source organism: Giardia lamblia ATCC 50803
[47] = biological target: HLA-B*15:01; assay: as above; conditions: source organism: Giardia lamblia ATCC 50803
[48] = biological target: HLA-A*30:01; assay: as above; conditions: source organism: Giardia lamblia ATCC 50803
[49] = source organism: Francisella tularensis subsp. holarctica LVS
[50] = source organism: Francisella tularensis subsp. tularensis FSC198
[51] = source organism: Giardia lamblia ATCC 50803

Row | Sequence | IC50 [1] | IC50 [2] | IC50 [3] | IC50 [4] | IC50 [5] | IC50 [6] | IC50 [7] | IC50 [8] | IC50 [9] | IC50 [10] | IC50 [11] | IC50 [12] | IC50 [13] | IC50 [14] | IC50 [15] | IC50 [16] | IC50 [17] | IC50 [18] | IC50 [19] | IC50 [20] | other results
1 | REIGDISYL |  |  |  |  |  |  |  |  |  |  |  |  |  |  |  |  |  |  |  |  | Kd [21]: ≥ 20 µM; Kd [22]: ≥ 20 µM; Kd [23, 49]: ≥ 20 µM; Kd [24]: ≥ 20 µM; Kd [25, 49]: ≥ 20 µM; Kd [26, 49]: ≥ 20 µM; Kd [27]: ≥ 20 µM; Kd [28, 49]: ≥ 20 µM; Kd [29, 49]: ≥ 20 µM; Kd [30, 49]: ≥ 20 µM; Kd [31]: ≥ 20 µM; Kd [32, 49]: ≥ 20 µM; Kd [33, 49]: ≤ 0.001 µM; Kd [34, 49]: ≥ 20 µM; Kd [35, 49]: ≥ 20 µM; Kd [36]: 0.309 µM; Kd [37]: ≥ 20 µM; Kd [38, 50]: 2 µM; Kd [39, 50]: ≥ 20 µM
2 | RQSSGSSSSGF | ≥ 20 µM | ≥ 20 µM | ≥ 20 µM | ≥ 20 µM | ≥ 20 µM | ≥ 20 µM | 2.06 µM | ≥ 20 µM | ≥ 20 µM | ≥ 20 µM | ≥ 20 µM | ≥ 20 µM | ≥ 20 µM | ≥ 20 µM | ≥ 20 µM | ≥ 20 µM | ≥ 20 µM | 0.317 µM | ≥ 20 µM | ≥ 20 µM | 
3 | VAAKGAPAL |  |  |  |  |  |  |  |  |  |  |  |  |  |  |  |  |  |  |  |  | Kd [40]: ≥ 20 µM; Kd [41]: ≥ 20 µM; Kd [42]: ≥ 20 µM; Kd [23, 51]: ≥ 20 µM; Kd [25, 51]: 0.952 µM; Kd [43]: 0.0071 µM; Kd [26, 51]: ≥ 20 µM; Kd [28, 51]: 0.279 µM; Kd [29, 51]: ≥ 20 µM; Kd [30, 51]: ≥ 20 µM; Kd [44]: ≥ 20 µM; Kd [45]: 0.003 µM; Kd [46]: 5.66 µM; Kd [32, 51]: ≥ 20 µM; Kd [47]: ≥ 20 µM; Kd [48]: ≥ 20 µM; Kd [33, 51]: ≥ 20 µM; Kd [34, 51]: ≥ 20 µM; Kd [35, 51]: 0.0677 µM; Kd [38, 51]: ≥ 20 µM
4 | WQLSGVVPL |  |  |  |  |  |  |  |  |  |  |  |  |  |  |  |  |  |  |  |  | Kd ([39]; source organism: Toxoplasma gondii RH): 0.0299 µM

Now from value to sequence, other results behind:

Row | IC50 [1] | IC50 [2] | IC50 [3] | IC50 [4] | IC50 [5] | IC50 [6] | IC50 [7] | IC50 [8] | IC50 [9] | IC50 [10] | IC50 [11] | IC50 [12] | IC50 [13] | IC50 [14] | IC50 [15] | IC50 [16] | IC50 [17] | IC50 [18] | IC50 [19] | IC50 [20] | Sequence | other results
5 | ≥ 20 µM | ≥ 20 µM | ≥ 20 µM | ≥ 20 µM | ≥ 20 µM | ≥ 20 µM | ≥ 20 µM | ≥ 20 µM | 15.5 µM | ≥ 20 µM | ≥ 20 µM | ≥ 20 µM | 5.66 µM | ≥ 20 µM | ≥ 20 µM | ≥ 20 µM | ≥ 20 µM | ≥ 20 µM | ≥ 20 µM | ≥ 20 µM | ELFARSSDPR | 
6 | ≥ 20 µM | ≥ 20 µM | ≥ 20 µM | ≥ 20 µM | ≥ 20 µM | 0.386 µM | ≥ 20 µM | ≥ 20 µM | ≥ 20 µM | 13.7 µM | ≥ 20 µM | 0.975 µM | ≥ 20 µM | ≥ 20 µM | ≥ 20 µM | ≥ 20 µM | ≥ 20 µM | ≥ 20 µM | ≥ 20 µM | ≥ 20 µM | LVTMGTGTFGR | 
